Reference: patent US6218600A, “Structure and expression of the biotin carboxylase subunit of heteromeric acetyl-CoA carboxylase” (Board of Trustees Operating Michigan State University, priority 1996, dated 2001)

Tests used:
Castor Endosperm ACCase = assay: ACCase activity assay, castor endosperm extract, with metabolites of fatty acid synthesis; format: biochemical, castor (Ricinus Communis L.); details: mean of duplicate determinations ± standard deviation, 15 min
Pea Chloroplast ACCase = assay: ACCase activity assay, pea chloroplast enzyme partially purified by gel permeation, with metabolites of fatty acid synthesis; format: biochemical, pea (Pisum sativum); details: mean of duplicate determinations ± standard deviation, 15 min

Molecule | Castor ACCase Activity (% of Control) (Castor Endosperm ACCase; 10 μM addition) | Pea ACCase Activity (% of control) (Pea Chloroplast ACCase; 1 μM addition) | Pea ACCase Activity (% of control) (Pea Chloroplast ACCase; 3 μM addition) | Pea ACCase Activity (% of control) (Pea Chloroplast ACCase; 10 μM addition) | Castor ACCase Activity (% of Control) (Castor Endosperm ACCase; 5 μM addition)
CCCCCCCC/C=C\CCCCCCCC(=O)O [18:1, Oleic acid, reference compound] | 72 ± 10 % of Control |  |  |  | 
CCCCCCCCCCCCCCCC(=O)O [16:0, reference compound] | 97 ± 8 % of Control |  |  |  | 
16:0-ACP: long-chain acyl-ACP synthesized from radioactive 16:0 fatty acid and recombinant spinach ACP-I (conjugate, UniProt P07854 57-138, looked up, radiolabeled palmitoyl (16:0) acyl thioester) Acyl carrier protein 1, …: AKKETIDKVCDIVKEKLALGADVVVTADSEFSKLGADSLDTVEIVMNLEEEFGINVDEDKAQDISTIQQAADVIESLLEKKA | 75 ± 3 % of Control | 98 ± 2 % of control | 91 ± 4 % of control | 77 ± 4 % of control | 
18:1-ACP: long-chain acyl-ACP synthesized from radioactive 18:1 fatty acid and recombinant spinach ACP-I (conjugate, UniProt P07854 57-138, looked up, radiolabeled oleoyl (18:1) acyl thioester) Acyl carrier protein 1, …: AKKETIDKVCDIVKEKLALGADVVVTADSEFSKLGADSLDTVEIVMNLEEEFGINVDEDKAQDISTIQQAADVIESLLEKKA | 63 ± 11 % of Control | 97 ± 1 % of control | 87 ± 3 % of control | 79 ± 14 % of control | 81 ± 9 % of Control
